# B1: 18B7F4G8 (antibody, V domains shown)
# VH: DVQLQESGPDLVKPSQSLSLTCTVTGYSITSGYTWHWIRQFPGNKLEWMGYIHYSGSTKYNPSLKSRFSITRDTSKNQFFLQLNSMTAEDTATYYCARNSLFASWGHGTLVTVSA
# VL: DIVLTQSPASLAVSLGQRATISCRASESVDTYGDSFMHWFQQKPGQPPKLLIYRASNLESGIPARFSGSGSRTDFTLTINPVEADDVATYYCQQSNEAPYTFGGGTKLEIK
# notes: Mouse mAb from hybridoma culture
# B2: 53C1F3D4 (antibody, V domains shown)
# VH: QVQLQQSGNELARPGASVRLSCKASGYIFTGYGITWVRQRPGQGLEWIGEIFPRRVNTYYSEKFKGRATLTADISSSTAYMELRSLTSEDSAVYFCARDYDPYFALDYWGQGTSVTVSS
# VL: DIVMTQSHKFMSTSVGDRVSITCKASQDVSTAVDWYQQKPGQSPKLLIYSASYRYTGVPDRFTGSGSGTAFTFTISGEQAEDLAVYYCQQHYSIPFTFGGGTKLEIK
# notes: Mouse mAb from hybridoma culture; also called mouse 53C1F3D4
# Legend:
# [1] = biological target: T1, human PD-L1 expressed on CHO-K1 cells (Genscript, Cat #M00543) (human, UniProt Q9NZQ7 19-290); experiment: cell-based or functional assay
# T1 sequence (Q9NZQ7 19-290, one chain of several): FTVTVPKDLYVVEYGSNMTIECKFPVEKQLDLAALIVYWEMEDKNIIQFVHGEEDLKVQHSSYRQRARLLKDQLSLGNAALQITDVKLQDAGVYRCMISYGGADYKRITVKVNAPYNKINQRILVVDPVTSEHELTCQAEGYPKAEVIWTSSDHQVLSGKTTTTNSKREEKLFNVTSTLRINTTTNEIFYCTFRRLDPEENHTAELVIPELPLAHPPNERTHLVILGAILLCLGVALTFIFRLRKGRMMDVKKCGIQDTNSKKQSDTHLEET
# [2] = biological target: T1, human PD-L1 expressed on CHO-K1 cells …; experiment: FACS on CHO-K1 cells expressing human PD-L1, PE-labeled goat anti-mouse IgG secondary antibody
# Experimental: (§1) PD-L1 stable cell line binding activity assessment of 12 mouse mAbs was carried out using FACS. CHO-K1 cells expressing human PD-L1 (Genscript, Cat #M00543) were dissociated from adherent culture flasks and mixed with varying concentrations of antibodies. The antibody and cells were incubated for 30 minutes at room temperature, washed three times with FACS buffer (PBS containing 1% BSA). PE-labeled goat anti-mouse IgG (minimal x-reactivity) secondary antibody (BioLegend, Cat #405307) was added and incubated at room temperature for 15 minutes. Cells were washed again with FACS buffer and analyzed by FACSCalibur (BD Bioscience, San Jose, Calif.) and Flowjo software. Data were analyzed with Prism 6 (GraphPad Software, San Diego, Calif.) using non-linear regression, and EC₅₀ values were calculated (FIGS. 2A-2L and Table 3).
# [3] = biological target: T1, human PD-L1 expressed on CHO-K1 cells …; experiment: FACS, CHO-K1/human PD-L1 cells
# Experimental: as §1
# [4] = biological target: T1, human PD-L1 expressed on CHO-K1 cells …; experiment: FACS competition vs biotin-PD-1-Fc on CHO-K1/human PD-L1 cells
# Experimental: A series of diluted mouse mAbs (concentration starting from 900 nM, 3 fold dilution, 50 μl per well) were added afterwards. The mixture was incubated at 4° C. for 30 minutes, washed twice with wash buffer, followed by the addition of PEcy5/streptavidin (1 μg/ml, 150 μl/well). The plates were again incubated at 4° C. for 30 minutes before the cells in each well were analyzed by FACSCalibur (BD Bioscience, San Jose, Calif.) and Flowjo software.
# [5] = biological target: T2, His-tagged PD-L1 ECD protein (ACROBiosystems) (human, UniProt Q9NZQ7 19-238); experiment: SPR, mAb captured via anti-Fc, PD-L1-His analyte
# T2 construct: Bought protein; also called PD-L1-His; PD-L1/His; not shown: His tag
# T2 sequence (Q9NZQ7 19-238): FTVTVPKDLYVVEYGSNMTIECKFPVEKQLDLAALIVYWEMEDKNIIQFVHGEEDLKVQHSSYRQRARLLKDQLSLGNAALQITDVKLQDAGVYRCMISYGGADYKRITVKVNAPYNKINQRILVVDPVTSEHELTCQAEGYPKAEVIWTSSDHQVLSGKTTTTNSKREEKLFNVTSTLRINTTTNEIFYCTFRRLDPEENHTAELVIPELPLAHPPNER
# Experimental: Briefly, capturing antibody (anti-mouse Fc antibody for the affinity measurement of mouse mAbs, or anti-human Fc antibody for the affinity measurement of chimeric and humanized mAbs, GE healthcare) was immobilized on a Biacore™ CM5 chip to approximately 7,000 RU using EDC-activated amine coupling chemistry. Antibody of interest (5 μg/ml) was captured for 60 seconds onto the sensorchip surface. His-tagged PD-L1 ECD protein (ACROBiosystems) was flowed over the sensorchip surface at a series concentrations. Flow rate was 30 μl/min in all experiments. Association and dissociation phases were 5 and 15 min, respectively. The chip was regenerated using Glycine/HCl pH 1.5. Captured antibody and antigen were removed between each cycle using 50 mM HCl in order to ensure a fresh binding surface for each concentration of antigen. The resulting sensorgrams were fit globally using a 1:1 binding model in order to calculate on- and off-rates (ka and kd, respectively), as well as affinities (KD).
Binder,"EC50, PD-L1 cell-based luciferase reporter assay [1] [nM]",EC50 (read off the curve) [2] [nM],EC50 [3] [nM],Top (best-fit value) [3],IC50 [4] [nM],Kd [5] [nM],koff [5] [s⁻¹],kon [5] [M⁻¹ s⁻¹]
B1,2.27,~3,0.62,399,–,–,–,–
B2,4.45,–,3.73,2020,1.27,0.61,0.00019,320000
